Reference: US20230272028

ALU30-15, sequence (chain, as listed by the source): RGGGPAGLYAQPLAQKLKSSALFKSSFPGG
ALU30-12, sequence (chain, as listed by the source): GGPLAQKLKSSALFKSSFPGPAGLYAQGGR
ALU30-8, sequence (chain, as listed by the source): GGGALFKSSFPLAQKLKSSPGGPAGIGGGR
ALU30-9, sequence (chain, as listed by the source): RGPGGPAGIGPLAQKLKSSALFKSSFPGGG
MMP-9, recombinant human, sequence (chain, as listed by the source): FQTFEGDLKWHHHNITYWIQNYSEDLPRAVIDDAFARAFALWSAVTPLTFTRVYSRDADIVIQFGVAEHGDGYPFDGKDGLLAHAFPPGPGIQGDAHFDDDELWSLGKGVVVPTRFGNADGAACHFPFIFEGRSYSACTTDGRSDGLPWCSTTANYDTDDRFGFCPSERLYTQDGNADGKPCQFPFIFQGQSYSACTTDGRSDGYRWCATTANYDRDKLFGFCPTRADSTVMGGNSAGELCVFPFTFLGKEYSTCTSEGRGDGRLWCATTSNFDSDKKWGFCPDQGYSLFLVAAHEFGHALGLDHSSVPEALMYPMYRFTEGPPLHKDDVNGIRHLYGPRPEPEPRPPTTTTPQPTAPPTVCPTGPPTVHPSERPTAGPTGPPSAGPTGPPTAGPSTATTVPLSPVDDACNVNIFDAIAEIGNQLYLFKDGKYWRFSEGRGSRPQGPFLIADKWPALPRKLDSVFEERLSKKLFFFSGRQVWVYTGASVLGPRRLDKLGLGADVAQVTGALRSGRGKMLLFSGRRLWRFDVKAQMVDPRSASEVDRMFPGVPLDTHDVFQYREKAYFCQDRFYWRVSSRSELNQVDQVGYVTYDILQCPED
Factor Xa, recombinant human, sequence (chain): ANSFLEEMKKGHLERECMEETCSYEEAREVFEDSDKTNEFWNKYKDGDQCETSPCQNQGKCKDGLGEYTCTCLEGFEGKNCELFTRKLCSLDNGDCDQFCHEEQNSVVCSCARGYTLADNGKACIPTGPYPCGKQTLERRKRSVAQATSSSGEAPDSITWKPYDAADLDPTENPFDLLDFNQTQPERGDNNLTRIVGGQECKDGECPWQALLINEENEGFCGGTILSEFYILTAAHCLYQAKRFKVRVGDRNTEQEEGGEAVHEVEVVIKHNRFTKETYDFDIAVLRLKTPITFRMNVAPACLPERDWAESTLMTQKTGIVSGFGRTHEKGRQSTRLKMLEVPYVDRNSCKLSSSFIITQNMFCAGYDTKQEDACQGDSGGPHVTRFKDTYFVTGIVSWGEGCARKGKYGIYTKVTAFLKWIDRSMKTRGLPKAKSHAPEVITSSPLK
ALU30-16, sequence (chain, as listed by the source): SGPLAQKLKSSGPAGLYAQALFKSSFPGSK
ALU30-14, sequence (chain, as listed by the source): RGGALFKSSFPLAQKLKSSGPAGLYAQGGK
hepsin, recombinant human, sequence (chain, as listed by the source): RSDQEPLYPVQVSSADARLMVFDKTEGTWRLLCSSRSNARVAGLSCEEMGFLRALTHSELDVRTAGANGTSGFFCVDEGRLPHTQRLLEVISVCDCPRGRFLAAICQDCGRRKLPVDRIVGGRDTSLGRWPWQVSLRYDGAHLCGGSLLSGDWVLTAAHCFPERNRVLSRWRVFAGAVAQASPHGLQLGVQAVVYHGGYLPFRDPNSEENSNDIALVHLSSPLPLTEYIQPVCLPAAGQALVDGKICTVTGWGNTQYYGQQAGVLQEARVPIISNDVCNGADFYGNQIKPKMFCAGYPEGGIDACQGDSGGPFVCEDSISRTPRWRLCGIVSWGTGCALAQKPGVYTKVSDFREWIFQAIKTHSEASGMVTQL
ALU30-19, sequence (chain, as listed by the source): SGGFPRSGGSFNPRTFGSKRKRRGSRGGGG
ALU30-1, sequence (chain, as listed by the source): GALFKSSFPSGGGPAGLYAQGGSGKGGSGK
ALU30-7, sequence (chain, as listed by the source): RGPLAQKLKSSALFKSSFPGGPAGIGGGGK
ALU30-2, sequence (chain, as listed by the source): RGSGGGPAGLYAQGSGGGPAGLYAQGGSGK
ALU30-5, sequence (chain, as listed by the source): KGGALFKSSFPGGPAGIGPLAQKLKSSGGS
ALU30-6, sequence (chain, as listed by the source): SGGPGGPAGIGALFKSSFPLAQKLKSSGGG
ALU30-10, sequence (chain, as listed by the source): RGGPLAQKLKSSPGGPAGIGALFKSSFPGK
ALU30-13, sequence (chain, as listed by the source): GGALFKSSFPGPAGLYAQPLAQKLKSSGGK
ALU30-11, sequence (chain, as listed by the source): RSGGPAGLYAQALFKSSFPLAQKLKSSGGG
ALU30-3, sequence (chain, as listed by the source): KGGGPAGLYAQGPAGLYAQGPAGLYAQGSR
ALU30-4, sequence (chain, as listed by the source): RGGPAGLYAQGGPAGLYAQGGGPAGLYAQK
ALU30-18, sequence (chain, as listed by the source): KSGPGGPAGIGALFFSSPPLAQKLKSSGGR
ALU30-17, sequence (chain, as listed by the source): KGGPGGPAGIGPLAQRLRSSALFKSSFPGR

Substance	30-mer peptide degradation by recombinant enzyme (MSP-MS) (ALU30-5)	30-mer peptide degradation by recombinant enzyme (MSP-MS) (ALU30-8)	30-mer peptide degradation by recombinant enzyme (MSP-MS) (ALU30-15)	30-mer peptide degradation by recombinant enzyme (MSP-MS) (ALU30-6)	30-mer peptide degradation by recombinant enzyme (MSP-MS) (ALU30-19)	30-mer peptide degradation by recombinant enzyme (MSP-MS) (ALU30-10)	30-mer peptide degradation by recombinant enzyme (MSP-MS) (ALU30-1)	30-mer peptide degradation by recombinant enzyme (MSP-MS) (ALU30-13)	30-mer peptide degradation by recombinant enzyme (MSP-MS) (ALU30-9)	30-mer peptide degradation by recombinant enzyme (MSP-MS) (ALU30-7)	30-mer peptide degradation by recombinant enzyme (MSP-MS) (ALU30-12)	comparison of cleavage efficiencies across the 30-mer library (ALU30-16)	30-mer peptide degradation by recombinant enzyme (MSP-MS) (ALU30-14)	further results
Factor Xa, recombinant human	the only library peptide with significant cleavage was Alu30-5, cleaved at the CTSL1_1 motif ALFKS|SFP (SEQ ID NO: 198), upstream of a FAPa_1 motif	all other peptides bearing a CTSL1_1 motif were cleaved by Factor Xa at either ALF|KSSFP (SEQ ID NO: 198) or ALFKS|SFP (SEQ ID NO: 198)	all other peptides bearing a CTSL1_1 motif were cleaved by Factor Xa at either ALF|KSSFP (SEQ ID NO: 198) or ALFKS|SFP (SEQ ID NO: 198)	all other peptides bearing a CTSL1_1 motif were cleaved by Factor Xa at either ALF|KSSFP (SEQ ID NO: 198) or ALFKS|SFP (SEQ ID NO: 198)	Peptide Alu30-19 with this motif was completely degraded before the 5 min time point	all other peptides bearing a CTSL1_1 motif were cleaved by Factor Xa at either ALF|KSSFP (SEQ ID NO: 198) or ALFKS|SFP (SEQ ID NO: 198)	all other peptides bearing a CTSL1_1 motif were cleaved by Factor Xa at either ALF|KSSFP (SEQ ID NO: 198) or ALFKS|SFP (SEQ ID NO: 198)	all other peptides bearing a CTSL1_1 motif were cleaved by Factor Xa at either ALF|KSSFP (SEQ ID NO: 198) or ALFKS|SFP (SEQ ID NO: 198)	all other peptides bearing a CTSL1_1 motif were cleaved by Factor Xa at either ALF|KSSFP (SEQ ID NO: 198) or ALFKS|SFP (SEQ ID NO: 198)	all other peptides bearing a CTSL1_1 motif were cleaved by Factor Xa at either ALF|KSSFP (SEQ ID NO: 198) or ALFKS|SFP (SEQ ID NO: 198)	all other peptides bearing a CTSL1_1 motif were cleaved by Factor Xa at either ALF|KSSFP (SEQ ID NO: 198) or ALFKS|SFP (SEQ ID NO: 198)	the lowest susceptibility to thrombin, Factor Xa, and hepsin	all other peptides bearing a CTSL1_1 motif were cleaved by Factor Xa at either ALF|KSSFP (SEQ ID NO: 198) or ALFKS|SFP (SEQ ID NO: 198)	30-mer peptide degradation by recombinant enzyme (MSP-MS) (ALU30-11): all other peptides bearing a CTSL1_1 motif were cleaved by Factor Xa at either ALF|KSSFP (SEQ ID NO: 198) or ALFKS|SFP (SEQ ID NO: 198); 30-mer peptide degradation by recombinant enzyme (MSP-MS) (ALU30-17): all other peptides bearing a CTSL1_1 motif were cleaved by Factor Xa at either ALF|KSSFP (SEQ ID NO: 198) or ALFKS|SFP (SEQ ID NO: 198); 30-mer peptide degradation by recombinant enzyme (MSP-MS) (ALU30-18): The peptide with the motif CTSL1_2 was cleaved at the lowest efficiency; 30-mer peptide degradation by recombinant enzyme (MSP-MS) (ALU30-16): all other peptides bearing a CTSL1_1 motif were cleaved by Factor Xa at either ALF|KSSFP (SEQ ID NO: 198) or ALFKS|SFP (SEQ ID NO: 198)
MMP-9, recombinant human	The FAPa_1 motif was not cleaved by MMP9, however, when followed either by the ADAM17_2 motif or the spacing residues GG	The FAPa_1 motif was not cleaved by MMP9, however, when followed either by the ADAM17_2 motif or the spacing residues GG	The next most efficient substrates contained the pair of motifs where MMP14_1 was followed directly by ADAM17_2	the FAPa_1 motif was also cleaved within the peptides bearing FAPa_1 directly followed by the CTSL1_1 motif at PGGPAG|IGALF (SEQ ID NO: 247); these were lower efficiency cleavages	–	the FAPa_1 motif was also cleaved within the peptides bearing FAPa_1 directly followed by the CTSL1_1 motif at PGGPAG|IGALF (SEQ ID NO: 247); these were lower efficiency cleavages	The single or double MMP14_1 motif-bearing peptides were next in the order	The next most efficient substrates contained the pair of motifs where MMP14_1 was followed directly by ADAM17_2	The FAPa_1 motif was not cleaved by MMP9, however, when followed either by the ADAM17_2 motif or the spacing residues GG	The FAPa_1 motif was not cleaved by MMP9, however, when followed either by the ADAM17_2 motif or the spacing residues GG	The slowest peptides bear the MMP14_1 motif near the C-terminus of the 30-mer peptide	–	The slowest peptides bear the MMP14_1 motif near the C-terminus of the 30-mer peptide	30-mer peptide degradation by recombinant enzyme (MSP-MS) (ALU30-4): The most efficient MMP9 substrates were those that bore three-repeats of the MMP14_1 motif; 30-mer peptide degradation by recombinant enzyme (MSP-MS) (ALU30-2): The single or double MMP14_1 motif-bearing peptides were next in the order; product formation at single bonds (MSP-MS) (ALU30-2): the specific cleavage of the Alu30-2 peptide was more efficient than the Alu30-1 peptide; product formation at single bonds (MSP-MS) (ALU30-1): the specific cleavage of the Alu30-2 peptide was more efficient than the Alu30-1 peptide; 30-mer peptide degradation by recombinant enzyme (MSP-MS) (ALU30-3): The most efficient MMP9 substrates were those that bore three-repeats of the MMP14_1 motif
hepsin, recombinant human	–	–	–	–	Alu30-19 was cleaved at all three motifs within the first 15 min of the reaction	–	–	–	–	–	–	the lowest susceptibility to thrombin, Factor Xa, and hepsin	–	apparent catalytic efficiency (kcat/KM) (ALU30-8): The authentic peptide Alu30-19, as well as the top cleaved peptides Alu30-8,-9, -12, and -14 all had apparent catalytic efficiencies on the same order of 105; comparison of cleavage efficiencies across the 30-mer library (ALU30-15): it had slightly higher hepsin susceptibility and lower CTSL1 activity; apparent catalytic efficiency (kcat/KM) (ALU30-19): The authentic peptide Alu30-19, as well as the top cleaved peptides Alu30-8,-9, -12, and -14 all had apparent catalytic efficiencies on the same order of 105; apparent catalytic efficiency (kcat/KM) (ALU30-9): The authentic peptide Alu30-19, as well as the top cleaved peptides Alu30-8,-9, -12, and -14 all had apparent catalytic efficiencies on the same order of 105; apparent catalytic efficiency (kcat/KM) (ALU30-12): The authentic peptide Alu30-19, as well as the top cleaved peptides Alu30-8,-9, -12, and -14 all had apparent catalytic efficiencies on the same order of 105; apparent catalytic efficiency (kcat/KM) (ALU30-14): The authentic peptide Alu30-19, as well as the top cleaved peptides Alu30-8,-9, -12, and -14 all had apparent catalytic efficiencies on the same order of 105
